{"source": "patent US20120283194", "proteins": {"B1": {"name": "recombinant HIS:aPKC (enzyme, UniProt P41743 2-596, looked up, species assumed)", "Protein kinase C iota type": "PTQRDSSTMSHTVAGGGSGDHSHQVRVKAYYRGDIMITHFEPSISFEGLCNEVRDMCSFDNEQLFTMKWIDEEGDPCTVSSQLELEEAFRLYELNKDSELLIHVFPCVPERPGMPCPGEDKSIYRRGARRWRKLYCANGHTFQAKRFNRRAHCAICTDRIWGLGRQGYKCINCKLLVHKKCHKLVTIECGRHSLPQEPVMPMDQSSMHSDHAQTVIPYNPSSHESLDQVGEEKEAMNTRESGKASSSLGLQDFDLLRVIGRGSYAKVLLVRLKKTDRIYAMKVVKKELVNDDEDIDWVQTEKHVFEQASNHPFLVGLHSCFQTESRLFFVIEYVNGGDLMFHMQRQRKLPEEHARFYSAEISLALNYLHERGIIYRDLKLDNVLLDSEGHIKLTDYGMCKEGLRPGDTTSTFCGTPNYIAPEILRGEDYGFSVDWWALGVLMFEMMAGRSPFDIVGSSDNPDQNTEDYLFQVILEKQIRIPRSLSVKAASVLKSFLNKDPKERLGCHPQTGFADIQGHPFFRNVDWDMMEQKQVVPPFKPNISGEFGLDNFDSQFTNEPVQLTPDDDDIVRKIDQSEFEGFEYINPLLMSAEECV", "modifications": "His tag"}}, "key": {"[1]": {"molecular_target": "GST:Gli1 fragment, zinc finger DNA binding region (UniProt P08151)", "sequence (P08151 235-387)": "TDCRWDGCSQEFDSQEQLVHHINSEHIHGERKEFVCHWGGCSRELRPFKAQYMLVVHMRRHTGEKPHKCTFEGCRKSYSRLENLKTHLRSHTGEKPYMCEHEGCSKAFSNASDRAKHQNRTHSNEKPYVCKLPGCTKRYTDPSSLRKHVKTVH"}}, "data": [{"protein": "B1", "values": [{"measurement": "in vitro kinase reaction ([g-32P]ATP, SDS-PAGE, phosphor screen)", "setting": "GST:Gli1", "value": "aPKC phosphorylates Gli1 (FIG. 3i)"}, {"measurement": "in vitro kinase reaction", "setting": "[1]", "value": "aPKC phosphorylates recombinantly expressed human Gli1 DNA-binding domain"}, {"measurement": "in vitro kinase reaction ([g-32P]ATP, SDS-PAGE, phosphor screen)", "setting": "[1]", "value": "with the majority of the phosphorylation occurring in the zinc finger DNA binding region of Gli1"}]}]}
